Each binder was assayed against T1, CSPG (bovine) (D8428, Sigma) (bovine, UniProt P21793 31-360, carries chondroitin sulfate A (CSA) glycosaminoglycan chain(s); the filing attributes the binding of VAR2CSA to this glycan) (assay: quartz crystal microbalance (Attana A100), CSPG coated, 1:1 fit).
T1 construct: also called chondroitin sulfate proteoglycan; CSA proteoglycan
T1 sequence (P21793 31-360): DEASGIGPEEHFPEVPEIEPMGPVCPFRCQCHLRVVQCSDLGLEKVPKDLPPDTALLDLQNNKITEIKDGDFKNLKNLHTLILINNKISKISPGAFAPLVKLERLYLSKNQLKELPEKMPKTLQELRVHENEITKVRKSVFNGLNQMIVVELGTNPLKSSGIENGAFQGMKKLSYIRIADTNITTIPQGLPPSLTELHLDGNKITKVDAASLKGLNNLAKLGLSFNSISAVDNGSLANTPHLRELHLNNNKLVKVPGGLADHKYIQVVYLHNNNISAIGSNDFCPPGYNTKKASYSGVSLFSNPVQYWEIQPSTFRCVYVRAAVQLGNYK

Binder	Kd
DBL1-ID2a (FCR3, Baculo) (other, also called DBL1X-ID2a; wild-type protein; not shown: V5 and His tag at the C-terminal (modified pAcGP67-A)) HSDSGKYDPCEKKLPPYDDNDQWKCQQNSSDGSGKPENICVPPRRERLCTYNLENLKFDKIRDNNAFLADVLLTARNEGEKIVQNHPDTNSSNVCNALERSFADLADIIRGTDQWKGTNSNLEKNLKQMFAKIRENDKVLQDKYPKDQKYTKLREAWWNANRQKVWEVITCGARSNDLLIKRGWRTSGKSDRKKNFELCRKCGHYEKEVPTKLDYVPQFLRWLTEWIEDFYREKQNLIDDMERHREECTREDHKSKEGTSYCSTCKDKCKKYCECVKKWKTEWENQENKYKDLYEQNKNKTSQKNTSRYDDYVKDFFEKLEANYSSLENYIKGDPYFAEYATKLSFILNPSDANNPSGETANHNDEACNCNESGISSVGQAQTSGPSSNKTCITHSSIKTNKKKECKDVKLGVRENDKDLKICVIEDTSLSGVDNCCCQDLLGILQENCSDNKRGSSSNDSCDNKNQDECQKKLEKVFASLTNGYKCDKCKSGTSRSKKKWIWKKSSGNEEGLQEEYANTIGLPPRTQSLYLGNLPKLENVCEDVKDINFDTKEKFLAGCLIVSFHEGKNLKKRYPQNKNSGNKENLCKALEYSFADYGDLIKGTSIWDNEYTKDLELNLQNNFGKLFGKYIKKNNTAEQDTSYSSLDELRESWWNTNKKYIWTAMKHGAEMNITTCNADGSVTGSGSSCDDIPTIDLIPQYLRFLQEWVENFCEQRQAKVKDVITNCKSCKESGNKCKTECKTKCKDECEKYKKFIEACGTAGGGIGTAGSPWSKRWDQIYKRYSKHIEDAKRNRKAGTKNCGTSSTTNAAASTDENKCVQSDIDSFFKHLIDIGLTTPSSYLSNVLDDNICGADKAPWTTYTTYTTTEKCNKERDKSKSQSSDTLVVVNVPSPLGNTPYRYKYACQCKIPTNEETCDDRKEYMNQWSCGSARTMKRGYKNDNYELCKYNGVDVKPTTVRSNSSKLD	8 nM
DBL1-ID2a (FCR3, E. coli) (other, Made in E. coli) HSDSGKYDPCEKKLPPYDDNDQWKCQQNSSDGSGKPENICVPPRRERLCTYNLENLKFDKIRDNNAFLADVLLTARNEGEKIVQNHPDTNSSNVCNALERSFADLADIIRGTDQWKGTNSNLEKNLKQMFAKIRENDKVLQDKYPKDQKYTKLREAWWNANRQKVWEVITCGARSNDLLIKRGWRTSGKSDRKKNFELCRKCGHYEKEVPTKLDYVPQFLRWLTEWIEDFYREKQNLIDDMERHREECTREDHKSKEGTSYCSTCKDKCKKYCECVKKWKTEWENQENKYKDLYEQNKNKTSQKNTSRYDDYVKDFFEKLEANYSSLENYIKGDPYFAEYATKLSFILNPSDANNPSGETANHNDEACNCNESGISSVGQAQTSGPSSNKTCITHSSIKTNKKKECKDVKLGVRENDKDLKICVIEDTSLSGVDNCCCQDLLGILQENCSDNKRGSSSNDSCDNKNQDECQKKLEKVFASLTNGYKCDKCKSGTSRSKKKWIWKKSSGNEEGLQEEYANTIGLPPRTQSLYLGNLPKLENVCEDVKDINFDTKEKFLAGCLIVSFHEGKNLKKRYPQNKNSGNKENLCKALEYSFADYGDLIKGTSIWDNEYTKDLELNLQNNFGKLFGKYIKKNNTAEQDTSYSSLDELRESWWNTNKKYIWTAMKHGAEMNITTCNADGSVTGSGSSCDDIPTIDLIPQYLRFLQEWVENFCEQRQAKVKDVITNCKSCKESGNKCKTECKTKCKDECEKYKKFIEACGTAGGGIGTAGSPWSKRWDQIYKRYSKHIEDAKRNRKAGTKNCGTSSTTNAAASTDENKCVQSDIDSFFKHLIDIGLTTPSSYLSNVLDDNICGADKAPWTTYTTYTTTEKCNKERDKSKSQSSDTLVVVNVPSPLGNTPYRYKYACQCKIPTNEETCDDRKEYMNQWSCGSARTMKRGYKNDNYELCKYNGVDVKPTTVRSNSSKLD	3.5 nM
ID1-ID2a (3D7, Baculo) (other, not shown: V5 and His tag at the C-terminal (modified pAcGP67-A)) LSFILNSSDANNPSEKIQKNNDEVCNCNESGIASVEQEQISDPSSNKTCITHSSIKANKKKVCKHVKLGVRENDKDLRVCVIEHTSLSGVENCCCQDFLRILQENCSDNKSGSSSNGSCNNKNQEACEKNLEKVLASLTNCYKCDKCKSEQSKKNNKNWIWKKSSGKEGGLQKEYANTIGLPPRTQSLCLVVCLDEKGKKTQELKNIRTNSELLKEWIIAAFHEGKNLKPSHEKKNDDNGKKLCKALEYSFADYGDLIKGTSIWDNEYTKDLELNLQKIFGKLFRKYIKKNNTAEQDTSYSSLDELRESWWNTNKKYIWLAMKHGAGMNSTTCCGDGSVTGSGSSCDDIPTIDLIPQYLRFLQEWVEHFCKQRQEKVKPVIENCKSCKESGGTCNGECKTECKNKCEVYKKFIEDCKGGDGTAGSSWVKRWDQIYKRYSKYIEDAKRNRKAGTKNCGPSSTTNAAENKCVQSDIDSFFKHLIDIGLTTPSSYLSIVLDDNICGADKAPWTTYTTYTTTEKCNKETDKSKLQQCNTAVVVNVPSPLGNTPHGYKYACQCKIPTNEETCDDRKEYMNQWSCGSARTMKRGYKNDNYELCKYNGVDVKPTTVRSNSSKLD	5.7 nM
ID1-ID2a (FCR3, Baculo) (other, The primers (NYIKGD ... NSSKLD) match its two ends; not shown: V5 and His tag at the C-terminal (modified pAcGP67-A)) NYIKGDPYFAEYATKLSFILNPSDANNPSGETANHNDEACNCNESGISSVGQAQTSGPSSNKTCITHSSIKTNKKKECKDVKLGVRENDKDLKICVIEDTSLSGVDNCCCQDLLGILQENCSDNKRGSSSNDSCDNKNQDECQKKLEKVFASLTNGYKCDKCKSGTSRSKKKWIWKKSSGNEEGLQEEYANTIGLPPRTQSLYLGNLPKLENVCEDVKDINFDTKEKFLAGCLIVSFHEGKNLKKRYPQNKNSGNKENLCKALEYSFADYGDLIKGTSIWDNEYTKDLELNLQNNFGKLFGKYIKKNNTAEQDTSYSSLDELRESWWNTNKKYIWTAMKHGAEMNITTCNADGSVTGSGSSCDDIPTIDLIPQYLRFLQEWVENFCEQRQAKVKDVITNCKSCKESGNKCKTECKTKCKDECEKYKKFIEACGTAGGGIGTAGSPWSKRWDQIYKRYSKHIEDAKRNRKAGTKNCGTSSTTNAAASTDENKCVQSDIDSFFKHLIDIGLTTPSSYLSNVLDDNICGADKAPWTTYTTYTTTEKCNKERDKSKSQSSDTLVVVNVPSPLGNTPYRYKYACQCKIPTNEETCDDRKEYMNQWSCGSARTMKRGYKNDNYELCKYNGVDVKPTTVRSNSSKLD	7.6 nM
ID1-ID2a (FCR3, E. coli) (other, Made in E. coli) NYIKGDPYFAEYATKLSFILNPSDANNPSGETANHNDEACNCNESGISSVGQAQTSGPSSNKTCITHSSIKTNKKKECKDVKLGVRENDKDLKICVIEDTSLSGVDNCCCQDLLGILQENCSDNKRGSSSNDSCDNKNQDECQKKLEKVFASLTNGYKCDKCKSGTSRSKKKWIWKKSSGNEEGLQEEYANTIGLPPRTQSLYLGNLPKLENVCEDVKDINFDTKEKFLAGCLIVSFHEGKNLKKRYPQNKNSGNKENLCKALEYSFADYGDLIKGTSIWDNEYTKDLELNLQNNFGKLFGKYIKKNNTAEQDTSYSSLDELRESWWNTNKKYIWTAMKHGAEMNITTCNADGSVTGSGSSCDDIPTIDLIPQYLRFLQEWVENFCEQRQAKVKDVITNCKSCKESGNKCKTECKTKCKDECEKYKKFIEACGTAGGGIGTAGSPWSKRWDQIYKRYSKHIEDAKRNRKAGTKNCGTSSTTNAAASTDENKCVQSDIDSFFKHLIDIGLTTPSSYLSNVLDDNICGADKAPWTTYTTYTTTEKCNKERDKSKSQSSDTLVVVNVPSPLGNTPYRYKYACQCKIPTNEETCDDRKEYMNQWSCGSARTMKRGYKNDNYELCKYNGVDVKPTTVRSNSSKLD	18.3 nM
DBL1X-DBL2Xb (FCR3, E. coli, as the column stands) (other, The value stands in column 4 (E. coli, under FCR3); The column may be shifted, in which case the protein could be the 3D7 baculovirus one; Range derived by me from the FCR3 primers (HSDSGK ... PYRYKY)) HSDSGKYDPCEKKLPPYDDNDQWKCQQNSSDGSGKPENICVPPRRERLCTYNLENLKFDKIRDNNAFLADVLLTARNEGEKIVQNHPDTNSSNVCNALERSFADLADIIRGTDQWKGTNSNLEKNLKQMFAKIRENDKVLQDKYPKDQKYTKLREAWWNANRQKVWEVITCGARSNDLLIKRGWRTSGKSDRKKNFELCRKCGHYEKEVPTKLDYVPQFLRWLTEWIEDFYREKQNLIDDMERHREECTREDHKSKEGTSYCSTCKDKCKKYCECVKKWKTEWENQENKYKDLYEQNKNKTSQKNTSRYDDYVKDFFEKLEANYSSLENYIKGDPYFAEYATKLSFILNPSDANNPSGETANHNDEACNCNESGISSVGQAQTSGPSSNKTCITHSSIKTNKKKECKDVKLGVRENDKDLKICVIEDTSLSGVDNCCCQDLLGILQENCSDNKRGSSSNDSCDNKNQDECQKKLEKVFASLTNGYKCDKCKSGTSRSKKKWIWKKSSGNEEGLQEEYANTIGLPPRTQSLYLGNLPKLENVCEDVKDINFDTKEKFLAGCLIVSFHEGKNLKKRYPQNKNSGNKENLCKALEYSFADYGDLIKGTSIWDNEYTKDLELNLQNNFGKLFGKYIKKNNTAEQDTSYSSLDELRESWWNTNKKYIWTAMKHGAEMNITTCNADGSVTGSGSSCDDIPTIDLIPQYLRFLQEWVENFCEQRQAKVKDVITNCKSCKESGNKCKTECKTKCKDECEKYKKFIEACGTAGGGIGTAGSPWSKRWDQIYKRYSKHIEDAKRNRKAGTKNCGTSSTTNAAASTDENKCVQSDIDSFFKHLIDIGLTTPSSYLSNVLDDNICGADKAPWTTYTTYTTTEKCNKERDKSKSQSSDTLVVVNVPSPLGNTPYRYKY	14.6 nM
DBL1-ID2a (3D7, Baculo) (other, also called DBL1X-ID2a; not shown: V5 and His tag at the C-terminal (modified pAcGP67-A)) HSDSGTNDPCDRIPPPYGDNDQWKCAIILSKVSEKPENVFVPPRRQRMCINNLEKLNVDKIRDKHAFLADVLLTARNEGERIVQNHPDTNSSNVCNALERSFADIADIIRGTDLWKGTNSNLEQNLKQMFAKIRENDKVLQDKYPKDQNYRKLREDWWNANRQKVWEVITCGARSNDLLIKRGWRTSGKSNGDNKLELCRKCGHYEEKVPTKLDYVPQFLRWLTEWIEDFYREKQNLIDDMERHREECTSEDHKSKEGTSYCSTCKDKCKKYCECVKKWKSEWENQKNKYTELYQQNKNETSQKNTSRYDDYVKDFFKKLEANYSSLENYIKGDPYFAEYATKLSFILNSSDANNPSEKIQKNNDEVCNCNESGIASVEQEQISDPSSNKTCITHSSIKANKKKVCKHVKLGVRENDKDLRVCVIEHTSLSGVENCCCQDFLRILQENCSDNKSGSSSNGSCNNKNQEACEKNLEKVLASLTNCYKCDKCKSEQSKKNNKNWIWKKSSGKEGGLQKEYANTIGLPPRTQSLCLVVCLDEKGKKTQELKNIRTNSELLKEWIIAAFHEGKNLKPSHEKKNDDNGKKLCKALEYSFADYGDLIKGTSIWDNEYTKDLELNLQKIFGKLFRKYIKKNNTAEQDTSYSSLDELRESWWNTNKKYIWLAMKHGAGMNSTTCCGDGSVTGSGSSCDDIPTIDLIPQYLRFLQEWVEHFCKQRQEKVKPVIENCKSCKESGGTCNGECKTECKNKCEVYKKFIEDCKGGDGTAGSSWVKRWDQIYKRYSKYIEDAKRNRKAGTKNCGPSSTTNAAENKCVQSDIDSFFKHLIDIGLTTPSSYLSIVLDDNICGADKAPWTTYTTYTTTEKCNKETDKSKLQQCNTAVVVNVPSPLGNTPHGYKYACQCKIPTNEETCDDRKEYMNQWSCGSARTMKRGYKNDNYELCKYNGVDVKPTTVRSNSSKLD	29.5 nM
